The results in this text go back to patent US8809529B2, “Imidazo[1,2-α]pyrazine derivatives” (Promega Corporation, priority 2010, dated 2014).

For one data set, the target named is T1, L27V02 enzyme (Oplophorus gracilirostris, UniProt Q9GV45, A31E/A60N/A81I/F95D/I117V/K70R/L54V/L99Q/M102K/N193R/P142E/Q151K/Q38R/Q45L/V71I/Y165I).
T1 construct: The N-terminus of the OgLuc variant L27V is methionine, valine and phenylalanine, i.e., MVF; made in house
The experiment in a line: Luminescence of compounds with purified L27V02 enzyme. It counts as biochemical. As to conditions: 20 μM compound, 36 pM L27V02, pH 7, 3 min. The method, then:
Compounds PBI-4525, PBI-4540 and PBI-4541 were screened for their ability to detect luminescence. […] The assay reagent was then mixed with 36 pM purified L27V02 enzyme (described in Example 25B), in DMEM without Phenol Red and 0.1% PRIONEX®. As a control, assay buffer with 20 μM PBI-3939 or PBI-4528 was used. Luminescence was measured as previously described 3 min after the assay reagent was added to the enzyme mixture.

Data set [1] can be described thus: Stability of coelenterazines in reporter reagent buffer (T90). As to conditions: time for luminescent signal to decay by 10% at 22° C.; read with OgLuc variant IV lysate.
Another data set relates to HEK293 cells. The experiment in a line: Toxicity of coelenterazines in HEK293 cells (CELLTITER-GLO). As to conditions: 24 hrs after compound addition. (Cellular ATP, detected with luciferase, serves as a proxy for viable cell number.)
A further data set concerns the target T2, OgLuc variant 9B8 opt (Oplophorus gracilirostris, UniProt Q9GV45, A31E/A60K/A81I/F95Y/I117V/L99Q/M102K/N193R/P142E/Q151K/Q38R/Q45L/V71I/Y165I).
T2 construct: made in house; host or cells: E. coli (crude lysate)
The data set can be described thus: Multiplex assay with red click beetle luciferase and 9B8 opt (modified DUAL-GLO). It counts as biochemical. The method, then:
A. Lysates of E. coli expressing the variant 9B8 opt were prepared as previously described in Example 27 and diluted 1000-fold in DMEM without phenol red+0.1% PRIONEX®. Luminescence from a sample containing 6.3 μg/mL of purified red click beetle luciferase and E. coli lysate expressing the variant 9B8 opt was detected using a modified DUAL-GLO® Luciferase Assay System (Promega Corp.). DUAL-GLO® STOP&GLO® Reagent containing 20 μM coelenterazine-h and DUAL-GLO® STOP&GLO® Reagent containing 20 μM PBI 3939 were used, according to the manufacturer's protocol, to detect the red click beetle luciferase and OgLuc variant 9B8 luciferase from a single sample. Three replicates were performed.
Luminescence was detected on a Turner MODULUS™ luminometer. […] The standard deviation (“+/−”) and coefficient of variance (“CV”) are also shown. A “no coelenterazine” control was performed to illustrate the amount of quenching of the red click beetle signal by the DUAL-GLO® STOP&GLO® Reagent of the DUAL-GLO® Luciferase Assay System in the absence of coelenterazine. The “no coelenterazine” control yielded a 349-fold quench.

The subject of data set [2] is CRE. The experiment in a line: CRE transcriptional reporter, bulk transfection, HEK293 cells. It counts as cell-based, human. The method, then:
(§1) The transcriptional reporter containing […] and 9B8 opt-P was used in the bulk transfection of HeLa cells
(§2) HEK293, NIH3T3, or HeLa cells were plated to a single well of a 6-well tissue culture plate the day before transfection at a density of 4.5×10^5 cells/well in 3 mL complete medium (DMEM+10% FBS+1×NEAA+1× sodium pyruvate) for HEK293 cells, 3×10^5 cellsNvell in 3 mL complete medium (DMEM+10% fetal calf serum (FCS)+1×NEAA+1× sodium pyruvate) for NIH3T3 cells, or 9.9×10^5 cells/well in 3 mL complete medium (DMEM+10% FBS+1×NEAA) for HeLa cells. Cells were grown overnight at 37° C.
(§3) 3,300 ng of reporter plasmid DNA in 155 4 OPTI-MEM® was mixed with 9.9 μL FUGENE® HD transfection reagent, vortexed briefly, and incubated at room temperature for 10 min. The CRE transcriptional reporters were used to transfect HEK293 and NIH3T3 cells. The HRE transcriptional reporters were used to transfect HeLa cells. The reporter mixture was added to cells and mixed by gentle rocking followed by incubation at 37° C. for 6 hrs (HEK293 and NIH3T3) or 3 hrs (HeLa). Cells were then trypsinized and resuspended in medium (DMEM+10% FBS+1×NEAA+1× sodium pyruvate for HEK293 cells, DMEM+10% FCS+1×NEAA+1× sodium pyruvate for NIH3T3 cells, or DMEM+10% FBS+1×NEAA for HeLa cells), followed by plating to the individual wells of a 96-well plate (20,000 cells/100 μL for HEK293, 10,000 cells/100 4 for NIH3T3, or […] for HeLa) and incubated at 37° C. overnight.
(§4) FSK (CRE stimulator) or 17-AAG (HRE stimulator; 17-Allylamino-demethoxy geldanamycin) in OPTI-MEM® was added to the cells (10 nM or 10 μM final concentration for FSK; 1 nM or 1 μM final concentration for 17-AAG) and incubated at 37° C. for 4 hrs (FSK) or 6 hrs (17-AAG). Plates were removed from the incubator and allowed to equilibrate to room temperature for 25 min. Cells were lysed with 100 μL lytic reagent as described above for the forward transfection. Luminescence was measured on a GLOMAX® Luminometer.

The test system of data set [3] is CRE. The data set can be described thus: CRE transcriptional reporter, bulk transfection, NIH3T3 cells. The data set is classed as cell-based. The method, then: as §1, §2, §3, §4
Data set [4] relates to antioxidant response element (ARE). The data set can be described thus: ARE transcriptional reporter, reverse transfection, HEK293 cells. It counts as cell-based, human. As to conditions: for baseline: 24 h, 100 ng DNA. How it is done:
HEK293 cells were trypsinized (T75 flask, 3 mL trypsin) and resuspended in […] (approximately 8.9×10^6 total cells) in medium containing DMEM+10% FBS+1×NEAA. Each transcriptional reporter was prepared for transfection by mixing 1.2 mL OPTI-MEM®, 12 μL transcription reporter DNA (100 ng) and 36 μL FUGENE® HD transfection reagent together and incubated at room temperature for 35 min. Following incubation, 624 μL of the transfection/reporter DNA mixture was added to 12 mL of cell suspension and mixed by inversion. After mixing, 100 μL of the cell/DNA mixture was added to wells of a 96-well plate (2 constructs/plate). The cells were incubated at 37° C. for 22 hrs. Tert-butylhydroquinone (a Nrf2 stabilizer; tBHQ; 1 μM (“baseline”) or 20 μM) or sulphoraphane, (an organosulfer antioxidant known to activate Nrf2; 1 μM (“baseline”) or 20 μM) in OPTI-MEM® was added to each well and incubated at 37° C. for 24 hrs. Cells were lysed with 100 μL lytic reagent as described above for the forward transfection. Luminescence was measured on a GLOMAX® Luminometer.

The test system of data set [5] is cAMP response element (CRE). The experiment in a line: CRE transcriptional reporter, forward transfection, HEK293 cells. The data set is classed as cell-based, human. Set-up: Response: scale not given here. As to conditions: for baseline: 10 nM FSK; for baseline / RLU (10 μM FSK): 3 h. The method, then:
HEK293 cells were plated at 15,000 cells/well in six 96-well tissue culture plates. Cells were grown in 100 μL of DMEM+10% FBS+1× non-essential amino acids (NEAA) and incubated overnight at 37° C. The cells were transiently transfected with either 10 ng or 100 ng plasmid DNA/well of pGL4.29 9B8 opt, pGL4.29 9B8 opt-P, or pGL4.29. Plasmid DNA was mixed with 850 μL of OPTI-MEM® (Invitrogen) and 32.4 μL of FUGENE® HD transfection reagent (Promega Corp.) and incubated at room temperature for 10 min. Eight μL of the transfection/reporter DNA mixture was added to the appropriate wells (2 constructs/plate). Cells were incubated for 4 hrs at 37° C. The medium was replaced with OPTI-MEM®+0.5% dialyzed FBS+1×NEAA+1× sodium pyruvate+1× Penn-Strep and incubated overnight at 37° C.
A lytic reagent containing 100 mM MES pH 6.1, 1 mM CDTA, 150 mM KCl, 35 mM thiourea, 2 mM DTT, 0.25% TERGITOL® NP-9 (v/v), 0.025% MAZU® DF 204, and 20 μM PBI-3939 was added to the cells containing pGL4.29 9B8 opt or pGL4.29 9B8 opt-P and allowed to incubated for 10 min at room temperature (100 μL lytic reagent added to 100 μL cells). ONE-GLO™ assay reagent (Promega Corp.) was added to cells containing pGL4.29 and used according to the manufacturer's protocol (100 μL reagent added to 100 μL cells). Luminescence was measured on a GLOMAX® Luminometer.

Data set [6] has as its system antioxidant response element (ARE). The experiment in a line: ARE transcriptional reporter, reverse transfection, HEK293 cells. The data set is classed as cell-based, human. As to conditions: 24 h, 100 ng DNA.
Data set [7] deals with heat shock response element (HRE). The data set can be described thus: HRE transcriptional reporter, bulk transfection, HeLa cells. It counts as cell-based. The method, then: as §1, §2, §3, §4

T1 sequence (Q9GV45 28-196 with tags or gaps with the stated changes limits assumed, one chain of several): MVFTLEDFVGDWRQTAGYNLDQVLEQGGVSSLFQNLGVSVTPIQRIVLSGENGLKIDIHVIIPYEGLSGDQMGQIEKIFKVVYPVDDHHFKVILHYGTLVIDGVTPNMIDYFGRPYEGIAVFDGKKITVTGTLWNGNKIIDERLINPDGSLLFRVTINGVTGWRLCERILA

At L27V02 enzyme, `Cn1ccnc1CC1=NC2=C(Cc3ccccc3)NC(c3ccccc3)(c3ccc(O)cc3)CN2C1=O` (stereo not drawn) [PBI-4540, 8-benzyl-6-(4-hydroxyphenyl)-2-((1-methyl-1H-imidazol-2-yl)methyl)-6-phenylimidazo[1,2-a]pyrazin-3(7H)-one] registered an RLU of 909 RLU.

Consider `O=c1c(Cc2ncc[nH]2)nc2c(Cc3ccccc3)[nH]c(-c3ccccc3)cn1-2` [PBI-4541, 2-((1H-imidazol-2-yl)methyl)-8-benzyl-6-phenylimidazo[1,2-a]pyrazin-3(7H)-one], for which, at L27V02 enzyme, the RLU is listed as 5,676 RLU.

Regarding “coelenterazine-h [Coelenterazine h, reference compound]”, the “Stability (pH 8) (T90 in hrs)” value in [1] came out at 2.1 hrs. Besides, the “Viability (normalized to vehicle (DMSO) control) (%)” value in the data set on HEK293 cells worked out at 100%. For the same molecule, the “Ogluc (average luminescence generated by 9B8 opt)” value on OgLuc variant 9B8 opt (20 μM substrate in DUAL-GLO STOP&GLO Reagent) was 921,440. Further, the “+/− coel” value at OgLuc variant 9B8 opt (Ogluc signal relative to no coelenterazine control) turned out to be 64.

B1: 9B8 opt-P: 9B8 opt further comprising the PEST protein degradation sequence (protein)
chain: MVFTLEDFVGDWRQTAGYNLDQVLEQGGLSSLFQKLGVSVTPIQKIVLSGENGLKIDIHVIIPYEGLSGYQMGQIEKIFKVVYPVDDHHFKVILHYGTLVIDGVTPNMIDYFGRPYEGIAVFDGKKITVTGTLWNGNKIIDERLINPDGSLLFRVTINGVTGWRLCERILANSHGFPPEVEEQAAGTLPMSCAQESGMDRHPAACASARINV
Turning to B1, the baseline was 3,960,000 in the data set on CRE [2] (HEK293, 10 nM FSK, 4 h); 410,461 in the data set with CRE [3] (NIH3T3, 10 nM FSK, 4 h); 258,406 in [4] (1 μM sulphoraphane); 317,238 in data set [4] (1 μM tBHQ); 11179 in data set [5] (10 ng DNA for transfection); 122,071 in data set [5] (100 ng DNA for transfection). The baseline in data set [7] (6 h) is 278,118. Further, the “RLU (10 mM FSK)” value with CRE [2] (HEK293, 4 h) is on record as 460,000,000 RLU; with CRE [3] (NIH3T3, 4 h), 3,720,000 RLU. The Response is given as 116 in the data set with CRE [2] (HEK293, FSK); 9 in the data set with CRE [3] (NIH3T3, FSK); 15 in data set [4] (sulphoraphane); 27 in [4] (tBHQ); 121 in [5] (10 ng DNA for transfection); 168 in data set [5] (100 ng DNA for transfection). The molecule further showed a Response in [7] (17-AAG) of 12. Further, the “RLU (10 μM FSK)” value in data set [5] (10 ng DNA for transfection) is 1,353,459 RLU; in data set [5] (100 ng DNA for transfection), 20,544,753 RLU. The “RLU (20 μM sulphoraphane)” value in data set [6] is listed as 3,940,000 RLU. The “RLU (20 μM tBHQ)” value in data set [6] is 8,460,000 RLU. Moreover, the “RLU (1 mM 17-AAG)” value in [7] (6 h) was 3,204,000 RLU.
